Data published in the supplement of paper PMC10126150.
± gives the standard deviation of the averaged measurements.

Tested on: ATP
Test: switch fluorescence ratio, 500 uM ATP over buffer (Cy3 cluster intensity, sum of 5 cycles each) (fold (ratio)); higher = stronger signal-on switching upon ATP binding; sequences stand for … in TCGTCGGCAGCGTCAGATGTGTATAAGAGACAGTTTTTTTTTTTTTTTTTTTTTTTTT…TC
Conditions: aptamer strand: ATP DNA aptamer (quencher-CACCTGGGGGAGTATTGCGGAGGAAGG + anchor), 100 nM annealed; ATP concentration: 500 uM
Procedure, shortened: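 Clusters carrying Cy3-labelled switching strands on a modified Illumina MiSeq flow-cell were annealed to 100 nM quencher-labelled ATP aptamer and imaged in selection buffer. They were imaged again after 15 min with 500 uM ATP at 22 °C, over five buffer/ATP cycles with NaOH stripping and re-annealing in between. For each cluster, the fluorescence ratio is the summed Cy3 intensity of the target cycles divided by that of the buffer cycles, averaged per switch-domain sequence. Clusters outside 100-1000 RFU were left out.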
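Also: ATP exposure 15 min at 22 °C before imaging.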

Row | Sequence | switch fluorescence ratio
1 | GGTTTAATGG | 1.01 ± 0.018
2 | GGTTTAATTA | 0.972 ± 0.03
3 | GGTTTAGCG | 1.014 ± 0.0025
4 | GGTTTAGCTC | 0.999 ± 0.038
5 | GGTTTAGGAA | 1 ± 0.028
6 | GGTTTAGGAG | 1.01 ± 0.062
7 | GGTTTAGGCT | 1.08 ± 0.12
8 | GGTTTATGAC | 1.13 ± 0.27
9 | GGTTTCATGG | 0.998 ± 0.012
10 | GGTTTCGTTT | 1.002 ± 0.0063
11 | GGTTTGAAAA | 1.01 ± 0.032
12 | GGTTTGCGCT | 1.004 ± 0.0076
13 | GGTTTGGGAG | 1 ± 0.036
14 | GGTTTGGGGG | 0.997 ± 0.023
15 | GGTTTGGTAA | 1.014 ± 0.0099
16 | GGTTTGTGTT | 0.974 ± 0.017
17 | GGTTTTAAGT | 1.01 ± 0.04
18 | GGTTTTGATG | 0.98 ± 0.039
19 | GGTTTTGGCG | 1 ± 0.061
20 | GGTTTTGGGG | 1.01 ± 0.026
21 | GGTTTTGTAG | 0.999 ± 0.012
22 | GGTTTTGTTG | 1.01 ± 0.0013
23 | GGTTTTTAGA | 1 ± 0.013
24 | GGTTTTTTAC | 1 ± 0.062
25 | GGTTTTTTTC | 1.02 ± 0.048

Row | Sequence | switch fluorescence ratio
26 | GTAAAAAAAG | 1.09 ± 0.086
27 | GTAAAAATTT | 1.06 ± 0.11
28 | GTAAAAGGGG | 0.996 ± 0.042
29 | GTAAAGCCTG | 0.968 ± 0.032
30 | GTAACCAATT | 1.01 ± 0.021
31 | GTAAGAGGGG | 1.02 ± 0.03
32 | GTAAGATGAA | 1.01 ± 0.018
33 | GTAAGATTGA | 0.986 ± 0.015
34 | GTAAGGAGTA | 0.96199 ± 0.0002
35 | GTAAGGGATA | 0.988 ± 0.031
36 | GTAAGGGGAT | 0.988 ± 0.016
37 | GTAAGGGGCA | 1.07 ± 0.047
38 | GTAAGGGGTC | 1 ± 0.028
39 | GTAAGTAGGA | 1 ± 0.037
40 | GTAAGTTGGT | 1 ± 0.021
41 | GTAAGTTTTT | 0.984 ± 0.02
42 | GTAATAAAAT | 0.971 ± 0.034
43 | GTAATAAGCG | 1.007 ± 0.00016
44 | GTAATACGTG | 1.14 ± 0.041
45 | GTAATACTTG | 1.079 ± 0.01
46 | GTAATAGGTT | 0.956 ± 0.057
47 | GTAATAGTTG | 1.01 ± 0.022
48 | GTAATATTAT | 0.974 ± 0.032
49 | GTAATCATCG | 0.9847 ± 0.0073
50 | GTAATCTCAG | 0.997 ± 0.022

Row | Sequence | switch fluorescence ratio
51 | GTAATGCTTG | 1.012 ± 0.01
52 | GTAATGGAAT | 0.9912 ± 0.0078
53 | GTAATGTGGT | 0.967 ± 0.024
54 | GTAATTAAGG | 0.996 ± 0.029
55 | GTAATTCAGA | 0.99 ± 0.037
56 | GTAATTGGGC | 0.964 ± 0.061
57 | GTAATTGTAA | 0.984 ± 0.012
58 | GTAATTTGCA | 0.9986 ± 0.0055
59 | GTACCATTTT | 0.9968 ± 0.0067
60 | GTACCGGGCA | 1.02 ± 0.026
61 | GTACGAGGGA | 0.997 ± 0.026
62 | GTACGAGTGC | 0.976 ± 0.019
63 | GTACGTAGGC | 1.03 ± 0.06
64 | GTACTGCCTG | 1 ± 0.024
65 | GTACTTCTGT | 0.96 ± 0.014
66 | GTAGAAAAAG | 1.99 ± 1.4
67 | GTAGAAGGGA | 1.01 ± 0.025
68 | GTAGAAGGGG | 1 ± 0.021
69 | GTAGACGGGT | 1.03 ± 0.031
70 | GTAGAGAGTG | 1 ± 0.02
71 | GTAGAGCGGG | 0.9889 ± 0.0042
72 | GTAGGACTGC | 1.01 ± 0.021
73 | GTAGGAGCCG | 0.9987 ± 0.0097
74 | GTAGGAGGGA | 1.05 ± 0.1
75 | GTAGGGCGCG | 1.021 ± 0.0035

Row | Sequence | switch fluorescence ratio
76 | GTAGGGGCTG | 1 ± 0.074
77 | GTAGGGGTCA | 0.976 ± 0.054
78 | GTAGTAATTG | 1.075 ± 0.0065
79 | GTAGTCTTAG | 0.9943 ± 0.0097
80 | GTAGTGACGT | 0.975 ± 0.044
81 | GTAGTTCATG | 0.96 ± 0.018
82 | GTATAAGCCT | 1.05 ± 0.041
83 | GTATAGGGTT | 0.9931 ± 0.007
84 | GTATATCCGG | 0.975 ± 0.013
85 | GTATCAGGGC | 1.04 ± 0.033
86 | GTATCTTACT | 1.007 ± 0.0018
87 | GTATGAAATG | 0.999 ± 0.022
88 | GTATGAGGCG | 0.981 ± 0.04
89 | GTATGAGGGA | 0.993 ± 0.018
90 | GTATGATGTG | 0.9915 ± 0.008
91 | GTATGCGAAG | 1.03 ± 0.053
92 | GTATGCGCAA | 2.74 ± 0.06
93 | GTATGCGTGT | 1.04 ± 0.034
94 | GTATGCTAAC | 1 ± 0.043
95 | GTATGCTTGG | 0.9959 ± 0.0042
96 | GTATGGGGGA | 1.01 ± 0.031
97 | GTATGTTGCG | 0.96532 ± 0.00026
98 | GTATTATTTA | 1 ± 0.022
99 | GTATTGAAGT | 0.98469 ± 0.00015
100 | GTATTGCTTT | 0.963 ± 0.012
